Experimental data from US20210246166A1 (Bayer, published 2021).
Bridge positions count the residues as written; N and C are the ends. Square brackets hold non-standard residues; d marks the D form. Ends that are not written are not given here. Pro(cis-4-CF3) = O=C(O)[C@@H]1C[C@H](C(F)(F)F)CN1; Oic = O=C(O)[C@@H]1C[C@@H]2CCCC[C@@H]2N1; PEG8 = NCCOCCOCCOCCOCCOCCOCCOCCOCCC(=O)O; Phe(2-Br) = N[C@@H](Cc1ccccc1Br)C(=O)O; tBuAla = CC(C)(C)C[C@H](N)C(=O)O; Chg = N[C@H](C(=O)O)C1CCCCC1; Pen = CC(C)(S)[C@H](N)C(=O)O; NMeC = CN[C@@H](CS)C(=O)O; Orn = NCCC[C@H](N)C(=O)O; Abu = CC[C@H](N)C(=O)O; Sar = CNCC(=O)O

T1: recombinant rat MASP1 active protease (amino acids 302-704, C-terminal His Tag) (rat, UniProt Q8CHN8 302-704)
T1 sequence: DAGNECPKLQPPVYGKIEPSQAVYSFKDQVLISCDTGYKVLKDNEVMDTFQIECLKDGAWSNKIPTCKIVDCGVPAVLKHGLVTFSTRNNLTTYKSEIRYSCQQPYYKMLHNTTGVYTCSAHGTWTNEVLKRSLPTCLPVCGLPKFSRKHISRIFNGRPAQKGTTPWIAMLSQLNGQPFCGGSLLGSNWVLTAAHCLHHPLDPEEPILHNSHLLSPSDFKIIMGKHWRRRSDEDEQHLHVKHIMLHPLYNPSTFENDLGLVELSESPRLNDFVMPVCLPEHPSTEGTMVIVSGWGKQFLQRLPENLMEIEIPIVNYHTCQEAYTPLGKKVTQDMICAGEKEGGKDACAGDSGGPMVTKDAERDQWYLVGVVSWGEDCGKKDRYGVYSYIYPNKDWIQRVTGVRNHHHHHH


Biological target: T1, recombinant rat MASP1 active protease …
Assay: cell-based or functional assay

rat MASP1 IC50	Binder
16 nM	AICSRS[tBuAla]PPI[NMeC]IPD-OH (disulfide 3-11; N-terminus assumed; SMILES CC[C@H](C)[C@H](NC(=O)[C@H](C)N)C(=O)N[C@H]1CSSC[C@@H](C(=O)N[C@H](C(=O)N2CCC[C@H]2C(=O)N[C@@H](CC(=O)O)C(=O)O)[C@@H](C)CC)N(C)C(=O)[C@H]([C@@H](C)CC)NC(=O)[C@@H]2CCCN2C(=O)[C@@H]2CCCN2C(=O)[C@H](CC(C)(C)C)NC(=O)[C@H](CO)NC(=O)[C@H](CCCNC(=N)N)NC(=O)[C@H](CO)NC1=O) [Example 86: AIC+SRS-((tBu)A)-PPI-((N-Me)C)+IPD-OH]
11 nM	AICSRS[tBuAla]P[Oic]I[Pen]IPD-NH2 (disulfide 3-11; N-terminus assumed; SMILES CC[C@H](C)[C@H](NC(=O)[C@H](C)N)C(=O)N[C@H]1CSSC(C)(C)[C@@H](C(=O)N[C@H](C(=O)N2CCC[C@H]2C(=O)N[C@@H](CC(=O)O)C(N)=O)[C@@H](C)CC)NC(=O)[C@H]([C@@H](C)CC)NC(=O)[C@@H]2C[C@@H]3CCCC[C@@H]3N2C(=O)[C@@H]2CCCN2C(=O)[C@H](CC(C)(C)C)NC(=O)[C@H](CO)NC(=O)[C@H](CCCNC(=N)N)NC(=O)[C@H](CO)NC1=O) [Example 108: AIC+SRS-((tBu)A)-P-(Oic)-I-(Pen)+IPD-NH2]
59 nM	AICSRSLP[Oic]I[NMeC]IP-NH2 (disulfide 3-11; N-terminus assumed; SMILES CC[C@H](C)[C@H](NC(=O)[C@H](C)N)C(=O)N[C@H]1CSSC[C@@H](C(=O)N[C@H](C(=O)N2CCC[C@H]2C(N)=O)[C@@H](C)CC)N(C)C(=O)[C@H]([C@@H](C)CC)NC(=O)[C@@H]2C[C@@H]3CCCC[C@@H]3N2C(=O)[C@@H]2CCCN2C(=O)[C@H](CC(C)C)NC(=O)[C@H](CO)NC(=O)[C@H](CCCNC(=N)N)NC(=O)[C@H](CO)NC1=O) [Example 123: AIC+SRSLP-(Oic)-I-((N-Me)C)+IP-NH2]
71 nM	[Sar]ICSRS[tBuAla]PPI[Pen]IP-{PEG8-NH2} (disulfide 3-11) [Example 74: ((N-Me)G)-IC+SRS-((tBu)A)-PPI-(Pen)+IP-(PEG8(28 atoms))-NH2]
70 nM	[Abu]ICSRS[tBuAla]PPICIPD-NH2 (disulfide 3-11; N-terminus assumed; SMILES CC[C@H](N)C(=O)N[C@H](C(=O)N[C@H]1CSSC[C@@H](C(=O)N[C@H](C(=O)N2CCC[C@H]2C(=O)N[C@@H](CC(=O)O)C(N)=O)[C@@H](C)CC)NC(=O)[C@H]([C@@H](C)CC)NC(=O)[C@@H]2CCCN2C(=O)[C@@H]2CCCN2C(=O)[C@H](CC(C)(C)C)NC(=O)[C@H](CO)NC(=O)[C@H](CCCNC(=N)N)NC(=O)[C@H](CO)NC1=O)[C@@H](C)CC) [Example 66: (Abu)-IC+SRS-((tBu)A)-PPIC+IPD-NH2]
48 nM	[Orn]ICSRS[tBuAla]PPI[NMeC]IPD-NH2 (disulfide 3-11; also: HCl salt) [Example 78: (Orn)-IC+SRS-((tBu)A)-PPI-((N-Me)C)+IPD-NH2 (HCl salt)]
43 nM	[Sar]ICSRS[tBuAla]PPI[Pen]IP-{PEG4‑CH2CO2H (15 atoms)-NH2} (disulfide 3-11) [Example 73: ((N-Me)G)-IC+SRS-((tBu)A)-PPI-(Pen)+IP-(PEG4-CH2CO2H (15 atoms))-NH2]
66 nM	[Orn]ICSRS[tBuAla]PPI[NMeC]IPD-NH2 (disulfide 3-11; N-terminus assumed; SMILES CC[C@H](C)[C@H](NC(=O)[C@@H](N)CCCN)C(=O)N[C@H]1CSSC[C@@H](C(=O)N[C@H](C(=O)N2CCC[C@H]2C(=O)N[C@@H](CC(=O)O)C(N)=O)[C@@H](C)CC)N(C)C(=O)[C@H]([C@@H](C)CC)NC(=O)[C@@H]2CCCN2C(=O)[C@@H]2CCCN2C(=O)[C@H](CC(C)(C)C)NC(=O)[C@H](CO)NC(=O)[C@H](CCCNC(=N)N)NC(=O)[C@H](CO)NC1=O) [Example 77: (Orn)-IC+SRS-((tBu)A)-PPI-((N-Me)C)+IPD-NH2]
77 nM	AICSRS[Phe(2-Br)]PPI[Pen]IPD-NH2 (disulfide 3-11; N-terminus assumed; SMILES CC[C@H](C)[C@H](NC(=O)[C@H](C)N)C(=O)N[C@H]1CSSC(C)(C)[C@@H](C(=O)N[C@H](C(=O)N2CCC[C@H]2C(=O)N[C@@H](CC(=O)O)C(N)=O)[C@@H](C)CC)NC(=O)[C@H]([C@@H](C)CC)NC(=O)[C@@H]2CCCN2C(=O)[C@@H]2CCCN2C(=O)[C@H](Cc2ccccc2Br)NC(=O)[C@H](CO)NC(=O)[C@H](CCCNC(=N)N)NC(=O)[C@H](CO)NC1=O) [Example 104: AIC+SRS-((2-Bromo)F)-PPI-(Pen)+IPD-NH2]
370 nM	[Abu]ICSRSLPP[Chg]CIPD-NH2 (disulfide 3-11; N-terminus assumed; SMILES CC[C@H](N)C(=O)N[C@H](C(=O)N[C@H]1CSSC[C@@H](C(=O)N[C@H](C(=O)N2CCC[C@H]2C(=O)N[C@@H](CC(=O)O)C(N)=O)[C@@H](C)CC)NC(=O)[C@H](C2CCCCC2)NC(=O)[C@@H]2CCCN2C(=O)[C@@H]2CCCN2C(=O)[C@H](CC(C)C)NC(=O)[C@H](CO)NC(=O)[C@H](CCCNC(=N)N)NC(=O)[C@H](CO)NC1=O)[C@@H](C)CC) [Example 169: (Abu)-IC+SRSLPP-(Chg)-C+IPD-NH2]
85 nM	KICSRS[tBuAla]PPI[NMeC]I-NH2 (disulfide 3-11; N-terminus assumed; SMILES CC[C@H](C)[C@H](NC(=O)[C@@H]1CSSC[C@H](NC(=O)[C@@H](NC(=O)[C@@H](N)CCCCN)[C@@H](C)CC)C(=O)N[C@@H](CO)C(=O)N[C@@H](CCCNC(=N)N)C(=O)N[C@@H](CO)C(=O)N[C@@H](CC(C)(C)C)C(=O)N2CCC[C@H]2C(=O)N2CCC[C@H]2C(=O)N[C@@H]([C@@H](C)CC)C(=O)N1C)C(N)=O) [Example 79: KIC+SRS-((tBu)A)-PPI-((N-Me)C)+I-NH2]
35 nM	AICSRS[tBuAla]P[Pro(cis-4-CF3)]I[NMeC]IPD-NH2 (disulfide 3-11; N-terminus assumed; SMILES CC[C@H](C)[C@H](NC(=O)[C@H](C)N)C(=O)N[C@H]1CSSC[C@@H](C(=O)N[C@H](C(=O)N2CCC[C@H]2C(=O)N[C@@H](CC(=O)O)C(N)=O)[C@@H](C)CC)N(C)C(=O)[C@H]([C@@H](C)CC)NC(=O)[C@@H]2C[C@H](C(F)(F)F)CN2C(=O)[C@@H]2CCCN2C(=O)[C@H](CC(C)(C)C)NC(=O)[C@H](CO)NC(=O)[C@H](CCCNC(=N)N)NC(=O)[C@H](CO)NC1=O) [Example 128: AIC+SRS-((tBu)A)-P-((4-CF3)P)-I-((N-Me)C)+IPD-NH2]
17 nM	AICSRS[tBuAla]PPI[Pen]IPD-NH2 (disulfide 3-11; N-terminus assumed; SMILES CC[C@H](C)[C@H](NC(=O)[C@H](C)N)C(=O)N[C@H]1CSSC(C)(C)[C@@H](C(=O)N[C@H](C(=O)N2CCC[C@H]2C(=O)N[C@@H](CC(=O)O)C(N)=O)[C@@H](C)CC)NC(=O)[C@H]([C@@H](C)CC)NC(=O)[C@@H]2CCCN2C(=O)[C@@H]2CCCN2C(=O)[C@H](CC(C)(C)C)NC(=O)[C@H](CO)NC(=O)[C@H](CCCNC(=N)N)NC(=O)[C@H](CO)NC1=O) [Example 98: AIC+SRS-((tBu)A)-PPI-(Pen)+IPD-NH2]
140 nM	AICSRSLP[rel‑(1R,3R,5R,6R)‑6‑(Trifluoromethyl)‑2‑azabicyclo(3.1.0)hexane‑3‑carboxylic acid]ICIPD-NH2 (disulfide 3-11)
7.2 nM	LICSRS[tBuAla]PPI[NMeC]I-NH2 (disulfide 3-11; N-terminus assumed; SMILES CC[C@H](C)[C@H](NC(=O)[C@@H]1CSSC[C@H](NC(=O)[C@@H](NC(=O)[C@@H](N)CC(C)C)[C@@H](C)CC)C(=O)N[C@@H](CO)C(=O)N[C@@H](CCCNC(=N)N)C(=O)N[C@@H](CO)C(=O)N[C@@H](CC(C)(C)C)C(=O)N2CCC[C@H]2C(=O)N2CCC[C@H]2C(=O)N[C@@H]([C@@H](C)CC)C(=O)N1C)C(N)=O) [Example 65: LIC+SRS-((tBu)A)-PPI-((N-Me)C)+I-NH2]
220 nM	AICSRS[tBuAla]P[Oic]ICI-NH2 (disulfide 3-11; N-terminus assumed; SMILES CC[C@H](C)[C@H](NC(=O)[C@@H]1CSSC[C@H](NC(=O)[C@@H](NC(=O)[C@H](C)N)[C@@H](C)CC)C(=O)N[C@@H](CO)C(=O)N[C@@H](CCCNC(=N)N)C(=O)N[C@@H](CO)C(=O)N[C@@H](CC(C)(C)C)C(=O)N2CCC[C@H]2C(=O)N2[C@@H](C[C@@H]3CCCC[C@@H]32)C(=O)N[C@@H]([C@@H](C)CC)C(=O)N1)C(N)=O) [Example 99: AIC+SRS-((tBu)A)-P-(Oic)-IC+I-NH2]
72 nM	HICSRS[tBuAla]PPI[NMeC]I-NH2 (disulfide 3-11; N-terminus assumed; SMILES CC[C@H](C)[C@H](NC(=O)[C@@H]1CSSC[C@H](NC(=O)[C@@H](NC(=O)[C@@H](N)Cc2c[nH]cn2)[C@@H](C)CC)C(=O)N[C@@H](CO)C(=O)N[C@@H](CCCNC(=N)N)C(=O)N[C@@H](CO)C(=O)N[C@@H](CC(C)(C)C)C(=O)N2CCC[C@H]2C(=O)N2CCC[C@H]2C(=O)N[C@@H]([C@@H](C)CC)C(=O)N1C)C(N)=O) [Example 154: HIC+SRS-((tBu)A)-PPI-((N-Me)C)+I-NH2]
110 nM	SICSRS[tBuAla]PPI[NMeC]I-NH2 (disulfide 3-11; N-terminus assumed; SMILES CC[C@H](C)[C@H](NC(=O)[C@@H]1CSSC[C@H](NC(=O)[C@@H](NC(=O)[C@@H](N)CO)[C@@H](C)CC)C(=O)N[C@@H](CO)C(=O)N[C@@H](CCCNC(=N)N)C(=O)N[C@@H](CO)C(=O)N[C@@H](CC(C)(C)C)C(=O)N2CCC[C@H]2C(=O)N2CCC[C@H]2C(=O)N[C@@H]([C@@H](C)CC)C(=O)N1C)C(N)=O) [Example 103: SIC+SRS-((tBu)A)-PPI-((N-Me)C)+I-NH2]
